For the test, the target named is Aβ1–42 fibrils (sonicated, immobilized) (human) (UniProt P05067). The experiment in a line: ELISA; sonicated Aβ1–42 fibrils coated on a high binding plate (50 μl of 2.5 μg/ml, carbonate buffer pH 9.6, overnight 8°C); blocked with 2% BSA in PBS pH 7.4; chaperones in 2% BSA up to 5,000 nM, 2 h at room temperature; detected with polyclonal anti-6×His; bound amount estimated from standard curves of chaperone deposited directly (0–100 nM).
As to “Human HSP10 (from UniProt P61604 3-102) (natural protein)”, the stoichiometry N (Aβ1–42 monomers per chaperone molecule) was 800.
Next, “GroES (from UniProt P0A6F9 1-97) (natural protein)”: 1400; Drosophila HSP10 (natural protein): 70.

The values above are taken from publication PMC9234269.
